The source of these data is patent US12605469B2, “Tumor specific antibody conjugates and uses therefor” (The University of North Carolina at Charlotte, priority 2019, dated 2026).

One data set has as its target T1, mutated K-ras (Mus musculus, UniProt P32883, G12D).
T1 construct: from tissue; host or cells: tumour tissue expressing the K-ras mutation but not human MUC1
Description: staining of tumor tissues expressing the K-ras mutation but not human MUC1. It counts as binding.

In the next data set the test system is CTCs. Description: […] measurement of MUC1-expressing CTCs. Type of data set: cell-based, human. Conditions: 7.5 ml blood spiked with PANC1 cells. On the procedure:
Both breast and pancreatic primary and metastatatic tumors express high levels of tumor-associated MUC1 recognized by the TAB-004 antibody of the presently disclosed subject matter. Therefore, CTCs in these patients should be recognized by the TAB-004 antibody. In preliminary experiments, levels of MUC1 were assessed using the TAB-004 antibody. First, the ability to use the Veridex […]® system to measure MUC1-expressing CTCs using 7.5 ml blood samples (analogous to human samples) spiked with PANC1 cells, which are a human pancreatic cancer cell line was tested. Approximately 90% of the CTCs (EpCAM+ cells) expressed MUC1. […] Therefore, using the TAB-004 antibody appears to accurately detect micrometastases in pancreatic and breast cancer patients.

For a further data set, the system named is KCM tumor cells. The experiment in a line: NK cell specific lysis of tumor cells. Type of data set: cell-based, mouse. The conditions noted are these: various E:T ratios. The source says:
FIGS. 4A and 4B are graphs showing that an exemplary antibody of the presently disclosed subject matter (TAB-004) enhanced the cytotoxicity of Natural Killer (NK) cells to kill target tumor cells.
The TAB-004 antibody alone or conjugated to CpG ODN bound to a tumor cell line (referred to herein as the “KCM” cell line; see FIG. 3) generated from the triple transgenic PDA.MUC1.Tg mice.

For data set [1], the target named is tumor-specific form of MUC1 (tMUC) (Homo sapiens, UniProt P15941). The conditions noted are these: cited from earlier work.
In data set [2] the test system is orthotopic tumors (PyVMT, PyVMT.MUC1, HCC-70, and AU565). Description: IVIS imaging of TAB-004-ICG in Nu-J nude mice with orthotopic tumors. Type of data set: in vivo, mouse. Conditions: ICG-conjugated. How it is done: FIGS. 18A-18D are a series of fluorescent images showing specific homimg of the ICG-tagged TAB-004 antibody to tumor sites in mice bearing PyV MT tumors (MUC1 null negative control; FIG. 18A), PyV MT.MUC1 tumors (MMT, MUC1+ positive control; FIG. 18B), HCC70 cell triple negative breast cancer (TNBC) tumors (MUC1+; FIG. 18C), and AU565 TNBC cell tumors (MUC1+; […]) imaged 4 hours post-injection with antibody. Imaging was repeated as tumors progressed (indicated as days post tumor challenge). […] Each of FIGS. 18A-18D is accompanied by a graph showing the growth of the tumor from 7-21 days (FIGS. 18A and 18B) or from 7 to 54 days (FIGS. 18C and 18D).
To test if TAB-004 can specifically reach TNBC tumors in vivo in mice, orthotopic tumors (PyVMT, PyVMT.MUC1, HCC-70, and AU565) were produced in the mammary fat pad of mice. Nu-J nude mice (8-week old) were injected with 10×10^6 cells in the lower right inquinal area of the mammary fat pad. When tumors were palpable, mice were injected retroorbitally with 12.5 μgs of TAB-004-directly conjugated to Indocyanine green (ICG) and imaged 4 hours post antibody injection. […] A negative breast cancer cell line that is null for human MUC1 was used as control to test specificity (PyVMT; see FIG. 18A).

B1: TAB-004: mAb of the IgG isotype produced by hybridoma ATCC PTA-11550; binds tumor-specific epitope of human MUC1 (antibody, V domains shown)
VH: EVQLQQSGGERATPGASVKMSCKTSGYTFTNYWMHWVKQRPGQGLEWIGYINPSSGYTQYNQKFKDKATLTADKSSSTAYIQLSSLTSEDSAVYYCSTYYGDYLFPYWGQGTLVTVSA
VL: DVLMTQTPLSLPVSLGDQASISCRSSQDIVYGNGNTYLEWYLQKPGQSPKLLIYKVSNRFSGVPDRFSGSGSGTDFTLKISRVEAEDLGVYYCFQGSHVPYTFGGGTKLEIKR
Turning to B1, in the data set with mutated K-ras, the “cross reactivity with mutated K-ras” value is on record as “cross reacted with mutated K-ras”. Also, the “CTCs (EpCAM+ cells) expressing MUC1” value in the data set with CTCs was “Approximately 90%”. Also, the “specific lysis of tumor cells by NK cells” value with KCM tumor cells is “enhanced specific lysis of KCM tumor cells”. In data set [1], the binding affinity was 3 ng/mL and the “binding to unrelated antigens” value is on record as “does not bind unrelated antigens”. Also, the Kd in data set [1] (read-out: binding affinity) is 0.02 nM. Also, in data set [2] (HCC70 and AU565, days post tumor challenge), the “earliest specific localization to tumor sites, human cell lines” value came out at 21 days. Also, the “earliest specific localization to tumor sites, PyVMT.MUC1 tumors” value in data set [2] (days post tumor challenge) came to 11 days.
